{
  "source": "paper PMC5042407",
  "about": "“Structural Details of Ufd1 Binding to p97 and Their Functional Implications in ER-Associated Degradation” (PLoS ONE, 2016)",
  "binders": {"B1": {"name": "Ufd1 SHP box peptide (225-235) (peptide)", "peptide": "FRAFSGSGNRL", "notes": "also called Ufd1SHP^WT; SHP box of Ufd1; source: synthetic peptide (Peptron, Korea)"}},
  "target": "T1, p97 N domain (21-196) (UniProt P55072 21-196)",
  "T1 construct": "p97 (VCP, valosin-containing protein), N-terminal domain, residues 21-196; The methods describe only the fusion proteins (pVFT3S vector, His6-thioredoxin cut off by TEV, E. coli Rosetta2 (DE3)); also called p97N^WT; N-terminal domain of p97; source: recombinant",
  "T1 sequence (P55072 21-196)": "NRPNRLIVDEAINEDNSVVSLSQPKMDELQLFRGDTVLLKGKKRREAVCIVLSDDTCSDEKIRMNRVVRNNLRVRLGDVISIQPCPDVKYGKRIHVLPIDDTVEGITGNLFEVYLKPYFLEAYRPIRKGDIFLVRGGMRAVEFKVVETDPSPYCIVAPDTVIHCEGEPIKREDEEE",
  "assay": "ITC; p97 N domain (2.0 mM) injected into the cell with Ufd1 SHP peptide (0.050 mM), 25°C, one-site binding model",
  "conditions": "both partners purified",
  "data": [
    {"binder": "B1", "values": [
      {"measurement": "Kd", "value": "221 ± 36", "unit": "µM"}
    ]}
  ]
}
